# Values quoted from earlier work as cited in patent publication US20250186538A1, “BIVALIRUDIN COMPOUNDS” (The General Hospital Corporation, priority 2022, published 2025).
# Conditions: in vivo
substance,measurement,value
D-Phe-Pro-Arg-Pro-Gly-Gly-Gly-Gly-Asn-Gly-Asp-Phe-Glu-Glu-Ile-Pro-Glu-Glu-Tyr-Leu [bival],Half-life,about 20 min
